Results from US20240124585A1 (SUTRO BIOPHARMA, published 2024).

Columns and labels:
[1] = target: T1, human CD3 epsilon (Acro Cat #CDE-H5223) (human, UniProt P07766 23-126); experiment: ELISA, coated antigen
T1 construct: Bought recombinant protein; also called rhCD3E

[2] = target: T2, cynomolgus CD3 epsilon (cynomolgus monkey, UniProt Q95LI5 22-117, limits assumed); experiment: ELISA, coated antigen
T2 construct: Recombinant protein; also called cyno CD3E
T2 sequence: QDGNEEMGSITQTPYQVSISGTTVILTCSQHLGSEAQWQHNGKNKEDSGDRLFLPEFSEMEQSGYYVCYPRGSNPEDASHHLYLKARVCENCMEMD

[3] = target: CD3-GE; experiment: ELISA, coated antigen
[4] = target: T3, human CD3 on T-cell lines (CD3-expressing Jurkat cells; HUT78 cells) (human, UniProt P07766 23-207); experiment: flow cytometry; signal on CD3+ Jurkat over CD3- Jurkat RT3-T3.5 cells
T3 construct: On cells it stands in the CD3/TCR complex
T3 sequence (P07766 23-207 limits assumed): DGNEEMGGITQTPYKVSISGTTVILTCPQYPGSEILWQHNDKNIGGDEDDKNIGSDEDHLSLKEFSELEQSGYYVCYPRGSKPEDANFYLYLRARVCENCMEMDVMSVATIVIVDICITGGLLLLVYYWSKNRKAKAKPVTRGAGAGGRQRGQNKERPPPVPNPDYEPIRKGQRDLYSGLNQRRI
Procedure: A high-throughput primary screen was performed to rapidly assess cell binding of antibodies produced in small-scale (60 μL) cell-free reactions. In this screen, four components are combined in equal volumes to a final volume of 100 μL/well in a U-bottom 96-well plate (Greiner Cat #650201) or flat bottom 384 well plate (Greiner Cat #781201). […] Plates are then incubated on ice for one hour. Cells are pelleted by spinning at 1500×g for 5 minutes and resuspended in assay buffer. High-throughput flow cytometry is then performed on resuspended cells on a FACS instrument (BD Biosciences FACS Canto II or BD Biosciences LSR II) and data is analyzed with FlowJo software. Antibody binding is assessed by the proportional level of secondary antibody signal (presumably due to binding to our antibody of interest) on Jurkat CD3-positive cells compared to the signal on Jurkat RT3.T3.5 CD3-negative cells.

[5] = target: T4, human CD3 delta-epsilon-Fc heterodimer (Acro Biosystems, Cat #CDD-H52WO) (human, UniProt P04234 22-105); experiment: single-point ELISA; signal on huCD3DE-Fc over Fc
T4 construct: Bought; also called CD3DE-Fc; huCD3DE-Fc; not shown: Fc
T4 sequence (chain, as listed by the source mutant, chain 1 of 2): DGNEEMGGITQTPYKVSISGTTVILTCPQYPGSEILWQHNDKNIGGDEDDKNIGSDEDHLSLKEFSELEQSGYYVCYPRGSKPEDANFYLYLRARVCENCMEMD
T4 sequence (P04234 22-105, stated change not applied, chain 2 of 2): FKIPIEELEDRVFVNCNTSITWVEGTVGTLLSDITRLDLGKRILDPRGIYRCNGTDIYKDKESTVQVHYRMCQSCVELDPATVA
Procedure: (§1) Following small-scale cell-free protein synthesis (60 μL reactions), each reaction was diluted 1:50 and tested for binding to CD3 protein by ELISA. Briefly, human CD3 delta-epsilon-Fc heterodimer (CD3DE-Fc, Acro Biosystems, Cat #CDD-H52WO), cynomolgus CD3 delta-epsilon heterodimer (CD3DE, Acro Cat #CDD-C52W4) and human IgG1 Fc (Acro Biosystems, Cat #FCC-H5214) were coated to 384-well Maxisorp plates in 0.2M sodium bicarbonate-carbonate pH 9.4 and blocked with […] in PBST (phosphate buffer saline, […], diluted from Teknova Cat #P2192). Antibodies expressed in CF were diluted 1:50 in 0.20% BSA in PBST and were incubated on the […] plates, washed, and detected with HRP-conjugated anti-human Fab antibodies (Jackson ImmunoResearch, West Grove, PA) and Pierce Pico Supersignal ELISA substrate (ThermoFisher Scientific).

[6] = target: T5, cynomolgus CD3 delta-epsilon heterodimer (Acro Cat #CDD-C52W4) (cynomolgus monkey, UniProt Q95LI8 22-105); experiment: single-point ELISA; signal on cyCD3DE over Fc
T5 construct: Bought; also called cyCD3DE
T5 sequence (Q95LI8 22-105, stated change not applied, one chain of several): as the sequence (P04234 22-105, stated change not applied, chain 2 of 2) above, with I5V, N15K, I20V, S32T, D33N, I34N, T64A, S74N, V83L counted along it
Procedure: as §1

[7] = target: T1, human CD3 epsilon (Acro Cat #CDE-H5223); experiment: SPR (Biacore), scFvFc captured, rhCD3E analyte
Procedure: Anti-Fab or anti-Fc polyclonal antibodies were immobilized onto a CM5 chip (GE Life Sciences) using amine coupling chemistry (from Amine Coupling Kit, GE Life Sciences). The immobilization steps were carried out at a flow rate of 25 μl/min in 1×HBS-EP+ buffer (GE Life Sciences; 10× Stock diluted before use). The sensor surfaces were activated for 7 min with a mixture of NHS (0.05 M) and EDC (0.2 M). The Anti-Fab or Anti-Fc antibodies were injected over all 4 flow cells at a concentration of 25 μg/mL in 10 mM sodium acetate, pH 4.5, for 7 min. Ethanolamine (1 M, pH 8.5) was injected for 7 min to block any remaining activated groups.
Off-rate and kinetic binding experiments were performed at 25° C. using 1×HBS-EP+ buffer. Test and control antibodies were injected over the anti-Fab or anti-Fc surface at concentrations of 5-10 μg/mL for 12 seconds at a flow rate of 10 μL/min on flow cells 2, 3 and 4, followed by a buffer wash for 30 seconds at the same flow rate. […] After capturing ligand (antibody) on the anti-Fc or anti-Fab surface, the analyte (human CD3 epsilon, Acro Cat #CDE-H5223) was bound for 180 seconds, followed by a 600 second dissociation phase at a flow rate of 50 μL/min. Between each ligand capture and analyte binding cycle, regeneration was carried out using two injections of 10 mM Glycine pH 2.0 for 30 seconds at 30 μL/min, followed by a 30 second buffer wash step.
The data was fit with the Biacore T200 Evaluation software, using a 1-1 Langmuir binding model. KD (affinity, nM) was determined as a ratio of the kinetic rate constants calculated from the fits of the association and dissociation phases.

[8] = target: T3, human CD3 on T-cell lines …; experiment: flow cytometry, Jurkat cells

T1 sequence (P07766 23-126 limits assumed): as the sequence (chain, as listed by the source mutant, chain 1 of 2) above

B1: Mouse SP34 (antibody, V domains shown)
VH: EVQLVESGGGLVQPKGSLKLSCAASGFTFNTYAMNWVRQAPGKGLEWVARIRSKYNNYATYYADSVKDRFTISRDDSQSILYLQMNNLKTEDTAMYYCVRHGNFGNSYVSWFAYWGQGTLVTVSA
VL: QAVVTQESALTTSPGETVTLTCRSSTGAVTTSNYANWVQEKPDHLFTGLIGGTNKRAPGVPARFSGSLIGDKAALTITGAQTEDEAIYFCALWYSNLWVFGGGTKLTVL
notes: also called SP34 mouse monoclonal antibody; MSP34
[1]
  EC50: 251 nM
  ELISA Bmax (RLU): 123000 RLU
[2]
  EC50: 352 nM
  ELISA Bmax (RLU): 116000 RLU
[3]
  EC50: 574 nM
  ELISA Bmax (RLU): 3610 RLU

B2: SMP1913-F09 (antibody, V domains shown)
VH: not shown
VL: QTVVTQEPSLTVSPGGTVTLTCGSSTGAVTSGYYPNWFQQKPGQAPRGLIGGTKFLAPGTPARFSGSLLGGKAALTLSGVQPEDEAEYYCALWYSNRWVFGGGTQLTVTG
notes: human IgG1, lambda; also called hSP34-Hc1 + SP34-Lc3; hSP34-HC1+hSP34-LC3
[1]
  EC50: 28.9 nM
  ELISA Bmax (RLU): 1.62e+06 RLU
[2]
  EC50: 35.6 nM
  ELISA Bmax (RLU): 1.57e+06 RLU
[3]
  EC50: 1110 nM
  ELISA Bmax (RLU): 1.7e+06 RLU
[4]
  FACS S/N (Jurkat/Jurkat RT3-T3.5 binding): 6.2

B3: SMP1913-F02 (antibody, V domains shown)
VH: not shown
VL: EIVVTQSPGTLSLSPGERATLSCGSSTGAVTSGYYPNWYQQKPGQAPRGLIGGTKFLAPGIPDRFSGSLLGTDATLTISRLEPEDFAVYYCALWYSNRWVFGQGTKLEIKR
notes: human IgG1, kappa; also called SP34-Hc + SP34-Lc1
[4]
  FACS S/N (Jurkat/Jurkat RT3-T3.5 binding): 0.9

B4: SMP1913-F07 (antibody, V domains shown)
VH: not shown
VL: EIVVTQSPGTLSLSPGERATLSCGSSTGAVTSGYYPNWYQQKPGQAPRGLIGGTKFLAPGIPDRFSGSLLGTDATLTISRLEPEDFAVYYCALWYSNRWVFGQGTKLEIKR
notes: human IgG1, kappa; also called hSP34-Hc1 + SP34-Lc1
[4]
  FACS S/N (Jurkat/Jurkat RT3-T3.5 binding): 0.8

B5: SRP2037:A03 (scFv, not shown: small tags and cut ends)
scFv: EVQLVESGGGLVKPGGSLRLSCAASGFTFSKYAMNWVRQAPGKGLEWVARIRSKYNNYATYYADSVKDRFTISRDDSKNTAYLQINSLKTEDTAVYYCVRHGNFGNSYTSYWAYWGQGTPVTVSSGGGGSGGDGSGGGGSQTVVTQEPSLTVSPGGTVTLTCGSSTGAVTSGYYPNWLQQKPGQAPRGLIGGTKFLAPGTPARFSGSLLGGKAALTLSGVQPEDEAEYYCALWYSNRWVFGGGTQLTVT
notes: tested as scFvFc
[5]
  huCD3DE-Fc/Fc, ELISA S/N: 55.1
[6]
  cyCD3DE/Fc, ELISA S/N: 62.1
[7]
  Kd: 1.23 nM
  koff: 0.000235 s⁻¹
[8]
  Bmax: 4540
  Kd: 0.16 nM

B6: SRP2037:A05 (scFv, not shown: small tags and cut ends)
scFv: EVQLVESGGGLVKPGGSLRLSCAASGFTFNKYAMNWVRQAPGKGLEWVARIRSKYNNYATYYADSVKDRFTISRDDSRNTAYLQMNSLKAEDTAVYYCVRHGNFGNSYISYWAYWGQGTPVTVSSGGGGSGGDGSGGGGSQTVVTQEPSLTVSPGGTVTLTCGSSTGAVTSGYYPNWLQQKPGQAPRGLIGGTKFLAPGTPARFSGSLLGGKAALTLSGVQPEDEAEYYCALWYSNRWVFGGGTQLTVT
notes: tested as scFvFc
[5]
  huCD3DE-Fc/Fc, ELISA S/N: 21.2
[6]
  cyCD3DE/Fc, ELISA S/N: 28.9
[7]
  Kd: 0.712 nM
  koff: 0.000157 s⁻¹
[8]
  Bmax: 5900
  Kd: 0.12 nM

B7: SRP2037:A04 (scFv, not shown: small tags and cut ends)
scFv: EVQLVESGGGLVKPGGSLRLSCAASGFTFNKYAMNWVRQAPGKGLEWVARIRSKYNNYATYYADSVKDRFTISRDDSKSTAYLQMNSLKTEDTAVYYCARHGNFGNSYISYWAYWGQGTPVTVSSGGGGSGGDGSGGGGSQTVVTQEPSLTVSPGGTVTLTCGSSTGAVTSGYHPNWLQQKPGQAPRGLIGGTKFLAPGTPARFSGSLLGGKAALTLSGVQPEDEAEYYCALWCSNRWVFGGGTQLTVT
notes: tested as scFvFc
[5]
  huCD3DE-Fc/Fc, ELISA S/N: 14.7
[6]
  cyCD3DE/Fc, ELISA S/N: 19.3
[7]
  Kd: 0.367 nM
  koff: 3.27e-06 s⁻¹
[8]
  Bmax: 4800
  Kd: 1.7 nM

B8: SMP1913-F03 (antibody, V domains shown)
VH: not shown
VL: QSAVTQPRSVSGSPGQSVTISCGSSTGAVTSGYYPNWYQQHPGKAPKGMIGGTKFLAPGVPDRFSGSLLGNTASLTISGLQAEDEADYYCALWYSNRWVFGGGTQLTVTG
notes: human IgG1, lambda; also called SP34-Hc + SP34-Lc2
[4]
  FACS S/N (Jurkat/Jurkat RT3-T3.5 binding): 1

B9: SMP1913-F08 (antibody, V domains shown)
VH: not shown
VL: QSAVTQPRSVSGSPGQSVTISCGSSTGAVTSGYYPNWYQQHPGKAPKGMIGGTKFLAPGVPDRFSGSLLGNTASLTISGLQAEDEADYYCALWYSNRWVFGGGTQLTVTG
notes: human IgG1, lambda; also called hSP34-Hc1 + SP34-Lc2
[4]
  FACS S/N (Jurkat/Jurkat RT3-T3.5 binding): 0.9

B10: SMP1913-F10 (antibody, V domains shown)
VH: not shown
VL: QTVVTQEPSFSVSPGGTVTLTCGSSTGAVTSGYYPNWYQQTPGQAPRGLIGGTKFLAPGVPDRFSGSLLGNKAALTITGAQADDESDYYCALWYSNRWVFGGGTQLTVTG
notes: human IgG1, lambda; also called hSP34-Hc1 + SP34-Lc4
[4]
  FACS S/N (Jurkat/Jurkat RT3-T3.5 binding): 1

B11: SMP1913-F05 (antibody, V domains shown)
VH: not shown
VL: QTVVTQEPSFSVSPGGTVTLTCGSSTGAVTSGYYPNWYQQTPGQAPRGLIGGTKFLAPGVPDRFSGSLLGNKAALTITGAQADDESDYYCALWYSNRWVFGGGTQLTVTG
notes: human IgG1, lambda; also called SP34-Hc + SP34-Lc4
[4]
  FACS S/N (Jurkat/Jurkat RT3-T3.5 binding): 0.9

B12: SMP1913-G04 (antibody, human IgG1, lambda, V domains shown)
VH: EVQLLESGGGLVQPGGSLRLSCAASGFTFNKYAMNWVRQAPGKGLEWVARIRSKYNNYATYYADSVKDRFTISRDDSKNTAYLQMNSLRAEDTAVYYCVRHGNFGNSYISYWAYWGQGTLVTVSS
VL: QTVVTQEPSFSVSPGGTVTLTCGSSTGAVTSGYYPNWYQQTPGQAPRGLIGGTKFLAPGVPDRFSGSLLGNKAALTITGAQADDESDYYCALWYSNRWVFGGGTQLTVTG
notes: human IgG1, lambda; also called hSP34-Hc2 + SP34-Lc4
[4]
  FACS S/N (Jurkat/Jurkat RT3-T3.5 binding): 1
